According to patent US20240293499A1 (SUNNYBROOK RESEARCH INSTITUTE, published 2024):

What was measured:
[1] = target: T1, murine VISTA (mVISTA), recombinant; form not stated (mouse, UniProt Q9D659 33-191, limits assumed); assay: SPR single-cycle kinetics (FIG. 8)
T1 construct: The SPR method names only hVISTA-Fc as analyte for the nanobodies; also called mouse VISTA
T1 sequence (looked up): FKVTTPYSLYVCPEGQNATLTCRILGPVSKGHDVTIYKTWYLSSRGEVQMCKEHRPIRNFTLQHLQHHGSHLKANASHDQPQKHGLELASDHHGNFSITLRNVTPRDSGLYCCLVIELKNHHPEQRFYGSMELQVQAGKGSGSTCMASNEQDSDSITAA

[2] = target: T2, human VISTA on primary human immune cells (CD14+CD16- classical monocytes of PBMCs) (human, UniProt Q9H7M9 33-311); assay: flow cytometry on human PBMC, gate CD14+CD16- monocytes, ΔMFI against control, 5 donors
T2 construct: whole, on cells; Native protein on donor cells; also called hVISTA
T2 sequence (looked up): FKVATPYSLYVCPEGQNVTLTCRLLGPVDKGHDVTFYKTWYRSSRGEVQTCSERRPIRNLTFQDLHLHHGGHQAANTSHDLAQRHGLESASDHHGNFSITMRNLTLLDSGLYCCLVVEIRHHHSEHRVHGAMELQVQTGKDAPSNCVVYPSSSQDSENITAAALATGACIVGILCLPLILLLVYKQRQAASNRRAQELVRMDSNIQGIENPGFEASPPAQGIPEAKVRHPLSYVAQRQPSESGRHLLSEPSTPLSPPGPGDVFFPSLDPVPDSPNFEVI
Procedure: PBMCs had their Fc receptors blocked with Human TruStain FcX (422301; BioLegend) then incubated with 2.5 μg of mAb, mouse IgG1 (401408; BioLegend), or rat IgG2a (400565; BioLegend) or 15 μg Nb for 1 hour at 4° C. After washing with PBS, the PBMCs were incubated with secondary antibodies (1 μL; FITC anti-mouse IgG1, FITC anti-HA, or FITC anti-rat IgG2a; 406605, 901507, or MRG2a-83; BioLegend) or control FITC anti-VISTA antibodies (clone B7H5DS8; 11-1088-42; eBioscience) for 40 minutes at 4° C. A staining cocktail consisting of PE/Cy5 anti-CD11b (101210; BioLegend), APC/Cy7 anti-CD14 (325620; BioLegend), Alexa Flour 700 anti-CD16 (302026; BioLegend), PE/Cy7 anti-CD4 (317414; BioLegend), and Alexa Flour 647 anti-CD8 (301022; BioLegend) was then added to the PBMCs and incubated for 20 minutes at 4° C. Finally, the PBMCs were washed and resuspended in 3 μM DAPI (D1306; Thermo Fisher Scientific) and cytometric profiles recorded using a BD LSR II flow cytometer (BD) maintained by The Centre for Flow Cytometry & Scanning Microscopy (CCSM) at Sunnybrook Research Institute (SRI; Sunnybrook Health Sciences Centre, Toronto, ON, Canada). The same protocol was performed on murine splenocytes to measure the binding of rat anti-hmVISTA mAbs to murine immune cells.

[3] = target: T3, hVISTA-Fc (produced in house) (human, UniProt Q9H7M9 33-194, limits assumed); assay: SPR (BIAcore T200), single-cycle kinetics, Nb captured on anti-His chip, hVISTA-Fc injected at 1.9, 3.8, 7.5, 15, 30 nM, 1:1 fit
T3 construct: Analyte in the SPR of the nanobodies; not shown: Fc
T3 sequence (looked up): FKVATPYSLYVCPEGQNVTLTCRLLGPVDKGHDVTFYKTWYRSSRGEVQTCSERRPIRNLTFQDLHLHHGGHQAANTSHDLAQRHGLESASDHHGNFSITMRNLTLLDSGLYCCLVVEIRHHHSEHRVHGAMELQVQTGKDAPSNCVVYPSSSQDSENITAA
Procedure: Binding kinetics of mAbs and Nbs to hVISTA and mVISTA were obtained by surface plasmon resonance (SPR) using a BIAcore T200 (Cytiva) and HBS running buffer (20 mM of HEPES pH 7.4, 150 mM NaCl, 0.005% Tween-20, 3.4 mM EDTA). Briefly, anti-histidine antibodies were immobilized on a CM5 chip (29149604; Cytiva) using the His capture kit (28995056; Cytiva) following manufacture's protocol. For mAbs, VISTA was captured by flowing […] of hVISTA-COMP-his or mVISTA-COMP-his at a flow rate of 30 μL/min. Sensorgrams were collected using single-cycle kinetics covering five mAb concentrations (1:2 serial dilutions). For Nbs, solutions of each nanobody ([…]) were flown over an anti-histidine-coated chip. Five concentrations (1:2 serial dilutions) of hVISTA-Fc (produced in house) were then injected at a flow rate of 30 μL/min. KD, Kₒₙ, and Koff were calculated by analyzing the sensorgrams with a 1:1 Langmuir binding model²³ after subtracting reference sensorgrams.

binding result [1]: no binding
binding result [2]: binds
Kd [3]: 7.5 nM
B1: anti-hVISTA nanobody hVISTANb7 (VHH)
VHH: QVQLQESGGGLVYPGGSLRLSCTASGFAFTNAYMNWVRQAPGKGAEWVSGITRDSNRTSYADSVKGRFTISRDNAKNTLYLQMDSLKSDDTALYYCNAEPSGWWLDDDYWGQGTQVTVSS
notes: Llama nanobody made in E. coli WK6; not shown: HA tag and His tag (pMECS vector; purified on a His-Trap column, detected with anti-HA)
